# Measured values: the RNAGym collection of RNA variant scans (doi:10.7554/elife.80360)
# B1: HDV Ribozyme (parent)
# chain: GGCCGGCAUGGUCCCAGCCUCCUCGCUGGCGCCGGCUGGGCAACAUUCCGAGGGGACCGUCCCCUCGGUAAUGGCGAAUGGGACCCA
# Variants of: B1
# Experiment: self-cleavage, relative activity (ratio to wild type); higher = more cleavage; co-transcriptional
row,Variant,self-cleavage
1,A16U A78C,0.156
2,C15U C32G,0.0489
3,A16U A56U,1.15
4,G17C C44U,0.142
5,G17A C33U,0.566
6,C15U G25A,0.0898
7,G17A C63U,0.88
8,A16G A87C,1.09
9,G17C G76A,0.446
10,G17C G76C,0.499
11,G17C G76U,0.773
12,C15U U65A,0.831
13,G17A C66A,0.748
14,C15U A70U,0.831
15,A16U C62A,0.897
16,A16U C85G,1.03
17,A16U C85A,1.1
18,A16C G67C,0.692
19,A16C G67U,1.17
20,A16C A43C,0.415
21,A16C G31A,0.297
22,G17A C49G,0.565
23,G17A C49U,0.853
24,A16U U20A,0.0875

row,Variant,self-cleavage
1,C15U U69C,0.643
2,G17C G52U,0.363
3,G17C G52A,0.415
4,G17A G29U,0.0767
5,G17A G29C,0.0405
6,C15G G54A,0.534
7,C15U A71U,0.598
8,G17C C33U,0.0475
9,A16G G82C,0.172
10,A16G G82A,0.453
11,G17A A70G,0.554
12,G17A A70C,0.449
13,A16C A78G,0.361
14,A16G C36A,0.229
15,A16C C64A,0.895
16,A16C C64G,0.554
17,A16C C32U,0.332
18,A16C C32G,0.293
19,A16G G76C,1.12
20,A16G A83G,0.755
21,A16G A83C,0.462
22,C15U G82A,0.325
23,G17A C19G,0
24,G17A C19A,0.142

row,Variant,self-cleavage
1,G17A G35U,0.0906
2,A16G G52A,0.975
3,C15U U37G,0.158
4,A16U G55C,0.98
5,C15U C58U,0.811
6,C15U C58G,1.36
7,A16U U23G,0.575
8,A16U U23A,0.739
9,C15U G34A,0.173
10,G17A C41U,0.46
11,G17A C41A,0.47
12,A16C A71G,0.7
13,A16C A71U,0.623
14,A16G G53A,1.04
15,C15U C62G,0.851
16,G17A U60G,0.712
17,G17A A43G,0.277
18,A16U G34U,0.128
19,G17A G50A,0.76
20,C15U G68A,0.759
21,C15U G68U,0.88
22,G17A G52U,0.728
23,A16C G34U,0.0489
24,G17A C86A,0.538

row,Variant,self-cleavage
1,A16G C85A,1.32
2,C15U C61U,0.882
3,C15U C61A,1.27
4,A16U A77G,0.739
5,A16U C24G,0.237
6,A16U C24A,0.482
7,C15U C22G,0.147
8,A16C A42U,0.208
9,G17C G29C,0.166
10,A16C G40C,0.201
11,A16G G28U,0.0519
12,A16U A43U,0.443
13,A16G A51C,1.05
14,A16G A43G,0.266
15,A16G G55A,0.943
16,A16G G39C,0.0791
17,C15U A51U,1.08
18,A16G G17U,0.643
19,A16G G17C,0.214
20,A16G U46C,0.293
21,A16C U20G,0
22,A16G C58U,0.962
23,A16C C48U,0.677
24,G17A G34U,0.0346

row,Variant,self-cleavage
1,A16G C18G,0.111
2,C15U G53C,0.956
3,A16G G74C,0.435
4,A16G G74A,0.404
5,G17C G38A,0.0396
6,G17C G38C,0.0831
7,G17A C62U,0.554
8,G17C C21U,0.0923
9,G17C G39U,0.108
10,A16U G38A,0.113
11,A16U G38U,0.253
12,A16U U79A,1.09
13,A16G G80U,0.208
14,A16C C86A,0.692
15,C15G U79G,0.391
16,C15G U79C,0.342
17,G17A A42G,0.119
18,A16G G50A,1.4
19,A16C G29U,0.0755
20,C15U G50A,1.08
21,C15U A87C,1.03
22,G17A C36G,0.0475
23,A16U G25C,0.32
24,C15U C26U,1.2

row,Variant,self-cleavage
1,C15G G52C,0.95
2,A16U U69C,0.643
3,A16U U69A,0.911
4,A16C G50C,0.959
5,A16C C22A,0.0594
6,A16C C22U,0.369
7,C15G G82A,0.0978
8,G17A G73A,0.34
9,G17C G74A,0.089
10,A16C C63A,0.942
11,A16U U72C,0.569
12,G17C C61A,0.185
13,G17C U47A,0
14,A16U A42G,0.166
15,C15U,0.965
16,A16G G81A,0.604
17,C15U C36U,0.886
18,G17C G59A,0.231
19,A16U C61A,1.11
20,A16U C33G,0.166
21,A16U C33U,0.684
22,A16U G50A,0.933
23,G17A C58G,0.812
24,C15G G55A,0.522

row,Variant,self-cleavage
1,C15U C33U,0.708
2,C15U G81A,0.554
3,C15U G81U,0.554
4,A16U C36U,0.631
5,A16G C41A,0.798
6,A16G C24G,0.178
7,A16C G68C,0.748
8,A16C G68U,0.697
9,C15G G50U,0.598
10,C15G G73A,0.162
11,C15G G73U,0.147
12,C15U U46G,0.499
13,C15U U46C,0.9
14,G17C C66G,0.32
15,C15G U72A,0.0875
16,G17C C32G,0
17,G17A C44G,0.268
18,G17C U20G,0.128
19,G17A G40U,0.562
20,G17A C26U,0.726
21,G17C G34C,0.0723
22,G17A G28C,0.0489
23,A16C C62G,0.403
24,A16G G73C,0.431

row,Variant,self-cleavage
1,A16G G73A,0.396
2,A16G C63A,1.03
3,G17C C24G,0.0898
4,G17C A45U,0.107
5,G17C G31C,0.0475
6,C15U C41G,0.475
7,C15G U27G,0.104
8,C15G U27C,0.277
9,G17C C63U,0.397
10,C15U C57G,1.06
11,A16C G55A,0.554
12,C15U G80C,0.177
13,A16G A42C,0.0755
14,A16U U65G,0.997
15,C15U G54U,0.901
16,G17A G76C,0.665
17,G17A G76U,0.863
18,A16G C64A,0.782
19,C15U G39U,0.322
20,A16C G53U,0.755
21,C15U A77U,0.246
22,C15G G76C,0.467
23,G17A G38A,0.104
24,C15U C84U,0.962

row,Variant,self-cleavage
1,C15U C84G,0.635
2,C15U U72A,0.485
3,A16C C58G,0.532
4,A16G U65G,1.01
5,A16G U65A,0.974
6,G17C U23A,0.344
7,C15U A56G,1.35
8,G17C C64G,0.298
9,A16C G38C,0
10,G17C G54A,0.262
11,G17C G54U,0.256
12,A16U C57A,1.17
13,G17A C21U,0
14,A16C C84G,0.87
15,A16C C84A,0.655
16,G17C A71G,0.475
17,G17C A71U,0.32
18,A16U C26U,0.831
19,A16G A77G,0.831
20,A16U U46G,0.437
21,A16U U46A,0.489
22,A16U U46C,1.21
23,C15U C18A,0.0639
24,A16G C61U,1.26

row,Variant,self-cleavage
1,A16G C61A,1.08
2,C15U G59U,0.895
3,A16U G31C,0.0437
4,A16C G17A,0.519
5,G17C U27G,0.499
6,G17C C41A,0.111
7,C15U G67A,0.808
8,C15U G67C,0.883
9,C15U G67U,0.972
10,A16U A51U,0.914
11,A16U A51C,0.923
12,A16C U23G,0.688
13,A16G C57U,1.14
14,A16G C57G,1.2
15,G17A G67A,0.501
16,C15U A78G,0.332
17,G17A G53U,0.718
18,C15G G74A,0.13
19,A16C G59A,0.649
20,A16C C66G,0.554
21,A16C C18G,0
22,C15G G59U,0.375
23,A16C C30A,0.208
24,A16C C30G,0.128

row,Variant,self-cleavage
1,G17A C22A,0.128
2,G17A C22U,0.194
3,A16U G53U,0.985
4,G17C C57U,0.256
5,A16G G29A,0.252
6,A16U G17A,0.712
7,G17C G82C,0.133
8,A16G C26G,0.831
9,A16G C26A,0.867
10,A16G C26U,0.86
11,G17A C64G,0.496
12,G17A G25A,0.117
13,A16C G81U,0.519
14,A16C G81C,0.346
15,G17A G31A,0.234
16,A16U G67U,0.975
17,A16C C57U,0.719
18,G17C G35C,0.0437
19,C15U C66A,1.11
20,A16G U69C,1.15
21,G17C A56C,0.302
22,A16C A77G,0.831
23,G17C C75U,0
24,G17A C48A,0.506

row,Variant,self-cleavage
1,G17A C48U,0.785
2,G17A C48G,0.46
3,A16G G38U,0.341
4,G17C A77U,0
5,G17C A77G,0.0615
6,A16C A51U,0.935
7,A16U G73A,0.222
8,A16U G73C,0.437
9,C15U A43U,0.284
10,C15U U47G,0.89
11,C15U U47C,0.779
12,A16U G40C,0.365
13,G17A C30A,0.651
14,C15U G35C,0.0723
15,C15U G35A,0.475
16,G17C A70C,0.0536
17,G17A G55A,0.705
18,G17C C48U,0.175
19,A16G C21A,0
20,A16G C21G,0.0875
21,G17A U37A,0.0415
22,A16U A70C,0.538
23,A16U A70G,0.855
24,A16U C44G,0.604

row,Variant,self-cleavage
1,A16C G82U,0.201
2,A16C A70G,0.923
3,A16U G81A,0.813
4,G17A G54A,0.786
5,G17A G74A,0.132
6,A16G C30G,0.122
7,A16G C30A,0.702
8,A16U C41A,0.87
9,A16U C41G,0.401
10,A16G C49A,1.08
11,A16U C64A,0.743
12,G17C A51C,0.308
13,A16C U65C,0.256
14,C15U C64G,0.962
15,G17C G40C,0
16,A16U U47C,0.72
17,C15U C49G,0.485
18,A16C C75G,0.268
19,C15U A83C,0.65
20,C15U C63U,0.914
21,A16G C44A,0.748
22,A16G C44U,0.615
23,G17A G68C,0.575
24,A16C U27C,0.293

row,Variant,self-cleavage
1,A16U U60G,1.15
2,G17A C75A,0.128
3,G17A C75U,0.138
4,G17A U46C,0.506
5,C15U U27C,0.712
6,A16G G31C,0.208
7,G17A A56U,0.528
8,A16C U72C,0.227
9,A16U C86U,0.852
10,G17A C32G,0.0415
11,G17A C32U,0.369
12,G17C U46A,0.237
13,A16G G54A,0.727
14,A16U C84A,0.665
15,A16G G59U,1.11
16,A16G G59A,1.29
17,C15U C75A,0.0326
18,C15U C75U,0.227
19,G17C A43C,0.119
20,G17A U23C,0.462
21,G17C A83G,0.131
22,G17C A83U,0.256
